Laboratory results from FireProtDB (doi:10.1074/jbc.m304177200).

Conditions: Kitasatospora aureofaciens; pH 7; Thermal; CD; MOPS 30 mM; reversible: yes(>95%); whole UniProt chain shown

B1: Guanyl-specific ribonuclease Sa wild type, P05798 (protein)
chain: DVSGTVCLSALPPEATDTLNLIASDGPFPYSQDGVVFQNRESVLPTQSYGYYHEYTVITPGARTRGTRRIITGEATQEDYYTGDHYATFSLIDQTC
Tm: 48.4 °C | unfolding enthalpy (van 't Hoff): 95 kcal/mol
